Results reported in EP4223783A2 (dated 2023).

B1: Anti-CD-52 2C3 A114N mutant antibody (antibody, human IgG1, kappa)
heavy: not shown
light: DIVMTQTPLSLSVTPGQPASISCKSSQSLLYSNGKTYLNWLLQKPGQSPQRLIYLVSKLDSGVPDRFSGSGSGTDFTLKISRVEAEDVGVYYCVQGTHLHTFGQGTRLEIKRTVAAPSVFIFPPSDEQLKSGTASVVCLLNNFYPREAKVQWKVDNALQSGNSQESVTEQDSKDSTYSLSSTLTLSKADYEKHKVYACEVTHQGLSSPVTKSFNRGEC
modifications: additional N-linked glycan at the engineered Asn 114 (Kabat)
notes: Full-length IgG1; mutated heavy chain with the WT 2C3 light chain
B2: Anti-CD-52 2C3 NGT mutant antibody (antibody, human IgG1, kappa)
heavy: not shown
light: B1 light
notes: Full-length IgG1; NGT added to the C-terminus of the heavy chain; WT 2C3 light chain; also called Add NGT to C-terminal
B3: Anti-CD-52 2C3 S298N/Y300S mutant antibody (antibody, human IgG1, kappa)
heavy: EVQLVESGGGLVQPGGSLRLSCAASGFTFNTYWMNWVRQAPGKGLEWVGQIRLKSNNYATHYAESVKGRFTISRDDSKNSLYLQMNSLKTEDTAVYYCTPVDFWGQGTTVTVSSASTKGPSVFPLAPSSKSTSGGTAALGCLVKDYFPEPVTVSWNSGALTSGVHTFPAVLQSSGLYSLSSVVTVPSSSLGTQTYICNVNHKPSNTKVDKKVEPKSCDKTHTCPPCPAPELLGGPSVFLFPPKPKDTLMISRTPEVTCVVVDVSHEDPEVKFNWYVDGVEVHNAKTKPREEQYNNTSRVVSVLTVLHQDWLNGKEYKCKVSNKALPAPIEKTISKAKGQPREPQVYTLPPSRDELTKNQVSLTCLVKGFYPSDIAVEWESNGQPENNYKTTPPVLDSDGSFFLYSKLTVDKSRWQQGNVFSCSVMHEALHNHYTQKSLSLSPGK
light: B1 light
notes: Full-length IgG1; also called S298N/Y300S 2C3 variant; S298/Y300S
B4: Anti-CD-52 2C3 S442N mutant antibody (antibody, IgG1)
heavy: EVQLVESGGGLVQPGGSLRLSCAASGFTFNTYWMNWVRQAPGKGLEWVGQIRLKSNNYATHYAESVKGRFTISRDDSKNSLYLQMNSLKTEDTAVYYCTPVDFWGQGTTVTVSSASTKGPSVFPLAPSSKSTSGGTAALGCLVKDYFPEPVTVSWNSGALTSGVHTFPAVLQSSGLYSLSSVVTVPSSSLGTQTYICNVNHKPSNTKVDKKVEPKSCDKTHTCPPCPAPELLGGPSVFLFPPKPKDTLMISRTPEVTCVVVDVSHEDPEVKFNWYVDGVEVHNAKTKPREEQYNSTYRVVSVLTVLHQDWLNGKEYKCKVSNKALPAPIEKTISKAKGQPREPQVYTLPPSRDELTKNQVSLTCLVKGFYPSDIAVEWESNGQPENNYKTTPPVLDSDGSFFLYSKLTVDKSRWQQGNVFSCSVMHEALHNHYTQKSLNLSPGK
light: B1 light
notes: as for B1
B5: Anti-CD-52 2C3 S440N mutant antibody (antibody, IgG1)
heavy: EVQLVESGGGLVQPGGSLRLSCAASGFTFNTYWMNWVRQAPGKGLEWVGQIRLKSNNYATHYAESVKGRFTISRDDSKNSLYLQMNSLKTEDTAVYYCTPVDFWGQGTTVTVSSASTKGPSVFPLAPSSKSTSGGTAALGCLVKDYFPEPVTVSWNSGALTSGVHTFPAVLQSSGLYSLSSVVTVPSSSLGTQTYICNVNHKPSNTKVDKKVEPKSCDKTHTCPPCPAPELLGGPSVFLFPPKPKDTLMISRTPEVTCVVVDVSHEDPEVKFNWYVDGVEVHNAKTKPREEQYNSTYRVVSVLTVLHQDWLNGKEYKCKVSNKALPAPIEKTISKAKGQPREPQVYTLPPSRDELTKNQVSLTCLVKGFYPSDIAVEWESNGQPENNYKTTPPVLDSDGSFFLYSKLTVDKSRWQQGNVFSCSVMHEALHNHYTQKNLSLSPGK
light: B1 light
notes: as for B1

Molecular target: T1, SEC-purified human FcRn-HPC4 (human, UniProt P55899 24-297; P61769 21-119)
T1 construct: Immobilized on a CM5 chip by amine coupling; also called human FcRn receptor; not shown: HPC4 tag
Experiment: Biacore SPR; antibody at 200, 50 and 10nM over immobilized FcRn

Binding result, binds:
B1
B2
B3
B4
B5
